Test results reported in PMC7367873, “Dissecting the sequence determinants for dephosphorylation by the catalytic subunits of phosphatases PP1 and PP2A” (Nature Communications, 2020).
Values belong to the molecule of their own block, whether it stands above or below them.

Tests used:
GFP-14-3-3β = GFP-14-3-3β co-IP with LC-MS/MS, untreated GFP-14-3-3β versus GFP control (14-3-3 interactome); type: binding, human; conditions: 3 replicates each
[1] = test system: GFP-14-3-3β and its binding proteins; test: GFP-14-3-3β co-IP with LC-MS/MS label-free quantification, untreated versus PP1c-treated; parameters: species or system human; conditions: pairwise comparison PP1 vs untreated, 3 replicates each
[2] = pairwise comparison untreated GFP-14-3-3β vs GFP, student's t-test, LC-MS/MS label-free quantification
[3] = student's t-test, LC-MS/MS label-free quantification

B1: CLASP2 (protein, UniProt O75122 1-1294, looked up)
CLIP-associating protein 2: MAMGDDKSFDDEESVDGNRPSSAASAFKVPAPKTSGNPANSARKPGSAGGPKVGGASKEGGAGAVDEDDFIKAFTDVPSIQIYSSRELEETLNKIREILSDDKHDWDQRANALKKIRSLLVAGAAQYDCFFQHLRLLDGALKLSAKDLRSQVVREACITVAHLSTVLGNKFDHGAEAIVPTLFNLVPNSAKVMATSGCAAIRFIIRHTHVPRLIPLITSNCTSKSVPVRRRSFEFLDLLLQEWQTHSLERHAAVLVETIKKGIHDADAEARVEARKTYMGLRNHFPGEAETLYNSLEPSYQKSLQTYLKSSGSVASLPQSDRSSSSSQESLNRPFSSKWSTANPSTVAGRVSAGSSKASSLPGSLQRSRSDIDVNAAAGAKAHHAAGQSVRSGRLGAGALNAGSYASLEDTSDKLDGTASEDGRVRAKLSAPLAGMGNAKADSRGRSRTKMVSQSQPGSRSGSPGRVLTTTALSTVSSGVQRVLVNSASAQKRSKIPRSQGCSREASPSRLSVARSSRIPRPSVSQGCSREASRESSRDTSPVRSFQPLASRHHSRSTGALYAPEVYGASGPGYGISQSSRLSSSVSAMRVLNTGSDVEEAVADALKKPARRRYESYGMHSDDDANSDASSACSERSYSSRNGSIPTYMRQTEDVAEVLNRCASSNWSERKEGLLGLQNLLKNQRTLSRVELKRLCEIFTRMFADPHGKRVFSMFLETLVDFIQVHKDDLQDWLFVLLTQLLKKMGADLLGSVQAKVQKALDVTRESFPNDLQFNILMRFTVDQTQTPSLKVKVAILKYIETLAKQMDPGDFINSSETRLAVSRVITWTTEPKSSDVRKAAQSVLISLFELNTPEFTMLLGALPKTFQDGATKLLHNHLRNTGNGTQSSMGSPLTRPTPRSPANWSSPLTSPTNTSQNTLSPSAFDYDTENMNSEDIYSSLRGVTEAIQNFSFRSQEDMNEPLKRDSKKDDGDSMCGGPGMSDPRAGGDATDSSQTALDNKASLLHSMPTHSSPRSRDYNPYNYSDSISPFNKSALKEAMFDDDADQFPDDLSLDHSDLVAELLKELSNHNERVEERKIALYELMKLTQEESFSVWDEHFKTILLLLLETLGDKEPTIRALALKVLREILRHQPARFKNYAELTVMKTLEAHKDPHKEVVRSAEEAASVLATSISPEQCIKVLCPIIQTADYPINLAAIKMQTKVIERVSKETLNLLLPEIMPGLIQGYDNSESSVRKACVFCLVAVHAVIGDELKPHLSQLTGSKMKLLNLYIKRAQTGSGGADPTTDVSGQS
Difference (log2), untreated vs GFP (GFP-14-3-3β; [2]): 2.306 log2
Difference (log2), PP1 vs untreated [1, 3]: -2.4301 log2

B4: HIRIP3 (protein, UniProt Q9BW71 1-556, looked up)
HIRA-interacting protein 3: MAREKEMQEFTRSFFRGRPDLSTLTHSIVRRRYLAHSGRSHLEPEEKQALKRLVEEELLKMQVDEAASREDKLDLTKKGKRPPTPCSDPERKRFRFNSESESGSEASSPDYFGPPAKNGVAAEVSPAKEENPRRASKAVEESSDEERQRDLPAQRGEESSEEEEKGYKGKTRKKPVVKKQAPGKASVSRKQAREESEESEAEPVQRTAKKVEGNKGTKSLKESEQESEEEILAQKKEQREEEVEEEEKEEDEEKGDWKPRTRSNGRRKSAREERSCKQKSQAKRLLGDSDSEEEQKEAASSGDDSGRDREPPVQRKSEDRTQLKGGKRLSGSSEDEEDSGKGEPTAKGSRKMARLGSTSGEESDLEREVSDSEAGGGPQGERKNRSSKKSSRKGRTRSSSSSSDGSPEAKGGKAGSGRRGEDHPAVMRLKRYIRACGAHRNYKKLLGSCCSHKERLSILRAELEALGMKGTPSLGKCRALKEQREEAAEVASLDVANIISGSGRPRRRTAWNPLGEAAPPGELYRRTLDSDEERPRPAPPDWSHMRGIISSDGESN
Difference (log2), untreated vs GFP (GFP-14-3-3β; [2]): 0.3778 log2
Difference (log2), PP1 vs untreated [1, 3]: -2.4581 log2

Now from value to molecule, other results behind:

Difference (log2), PP1 vs untreated [1, 3]: -2.475 log2
B2: SAFB (protein, UniProt Q15424 2-915, looked up)
Scaffold attachment factor B1: AETLSGLGDSGAAGAAALSSASSETGTRRLSDLRVIDLRAELRKRNVDSSGNKSVLMERLKKAIEDEGGNPDEIEITSEGNKKTSKRSSKGRKPEEEGVEDNGLEENSGDGQEDVETSLENLQDIDIMDISVLDEAEIDNGSVADCVEDDDADNLQESLSDSRELVEGEMKELPEQLQEHAIEDKETINNLDTSSSDFTILQEIEEPSLEPENEKILDILGETCKSEPVKEESSELEQPFAQDTSSVGPDRKLAEEEDLFDSAHPEEGDLDLASESTAHAQSSKADSLLAVVKREPAEQPGDGERTDCEPVGLEPAVEQSSAASELAEASSEELAEAPTEAPSPEARDSKEDGRKFDFDACNEVPPAPKESSTSEGADQKMSSPEDDSDTKRLSKEEKGRSSCGRNFWVSGLSSTTRATDLKNLFSKYGKVVGAKVVTNARSPGARCYGFVTMSTAEEATKCINHLHKTELHGKMISVEKAKNEPVGKKTSDKRDSDGKKEKSSNSDRSTNLKRDDKCDRKDDAKKGDDGSGEKSKDQDDQKPGPSERSRATKSGSRGTERTVVMDKSKGVPVISVKTSGSKERASKSQDRKSASREKRSVVSFDKVKEPRKSRDSESHSRVRERSEREQRMQAQWEREERERLEIARERLAFQRQRLERERMERERLERERMHVEHERRREQERIHREREELRRQQELRYEQERRPAVRRPYDLDRRDDAYWPEAKRAALDERYHSDFNRQDRFHDFDHRDRGRYPDHSVDRREGSRSMMGEREGQHYPERHGGPERHGRDSRDGWGGYGSDKRMSEGRGLPPPPRRDWGDHGRREDDRSWQGTADGGMMDRDHKRWQGGERSMSGHSGPGHMMNRGGMSGRGSFAPGGASRGHPIPHGGMQGGFGGQSRGSRPSDARFTRRY
Difference (log2), untreated vs GFP (GFP-14-3-3β; [2]): 3.699 log2

Difference (log2), PP1 vs untreated ([1]; log2 difference, label-free quantification): 1.556
B3: MYPN (protein, UniProt Q86TC9 1-1320, looked up)
Myopalladin: MQDDSIEASTSISQLLRESYLAETRHRGNNERSRAEPSSNPCHFGSPSGAAEGGGGQDDLPDLSAFLSQEELDESVNLARLAINYDPLEKADETQARKRLSPDQMKHSPNLSFEPNFCQDNPRSPTSSKESPQEAKRPQYCSETQSKKVFLNKAADFIEELSSLFKSHSSKRIRPRACKNHKSKLESQNKVMQENSSSFSDLSERRERSSVPIPIPADTRDNEVNHALEQQEAKRREAEQAASEAAGGDTTPGSSPSSLYYEEPLGQPPRFTQKLRSREVPEGTRVQLDCIVVGIPPPQVRWYCEGKELENSPDIHIVQAGNLHSLTIAEAFEEDTGRYSCFASNIYGTDSTSAEIYIEGVSSSDSEGDPNKEEMNRIQKPNEVSSPPTTSAVIPPAVPQAQHLVAQPRVATIQQCQSPTNYLQGLDGKPIIAAPVFTKMLQNLSASEGQLVVFECRVKGAPSPKVEWYREGTLIEDSPDFRILQKKPRSMAEPEEICTLVIAEVFAEDSGCFTCTASNKYGTVSSIAQLHVRGNEDLSNNGSLHSANSTTNLAAIEPQPSPPHSEPPSVEQPPKPKLEGVLVNHNEPRSSSRIGLRVHFNLPEDDKGSEASSEAGVVTTRQTRPDSFQERFNGQATKTPEPSSPVKEPPPVLAKPKLDSTQLQQLHNQVLLEQHQLQNPPPSSPKEFPFSMTVLNSNAPPAVTTSSKQVKAPSSQTFSLARPKYFFPSTNTTAATVAPSSSPVFTLSSTPQTIQRTVSKESLLVSHPSVQTKSPGGLSIQNEPLPPGPTEPTPPPFTFSIPSGNQFQPRCVSPIPVSPTSRIQNPVAFLSSVLPSLPAIPPTNAMGLPRSAPSMPSQGLAKKNTKSPQPVNDDNIRETKNAVIRDLGKKITFSDVRPNQQEYKISSFEQRLMNEIEFRLERTPVDESDDEIQHDEIPTGKCIAPIFDKRLKHFRVTEGSPVTFTCKIVGIPVPKVYWFKDGKQISKRNEHCKMRREGDGTCSLHIESTTSDDDGNYTIMAANPQGRISCSGHLMVQSLPIRSRLTSAGQSHRGRSRVQERDKEPLQERFFRPHFLQAPGDMVAHEGRLCRLDCKVSGLPPPELTWLLNGQPVLPDASHKMLVRETGVHSLLIDPLTQRDAGTYKCIATNKTGQNSFSLELSVVAKEVKKAPVILEKLQNCGVPEGHPVRLECRVIGMPPPVFYWKKDNETIPCTRERISMHQDTTGYACLLIQPAKKSDAGWYTLSAKNEAGIVSCTARLDIYAQWHHQIPPPMSVRPSGSRYGSLTSKGLDIFSAFSSMESTMVYSCSSRSVVESDEL
Difference (log2), untreated vs GFP (GFP-14-3-3β; log2 difference, pairwise comparison untreated vs GFP, label-free quantification): -0.08833

Difference (log2), PP1 vs untreated [1, 3]: -2.404 log2
B5: PARD3 (protein, UniProt Q8TEW0 1-1356, looked up)
Partitioning defective 3 …: MKVTVCFGRTRVVVPCGDGHMKVFSLIQQAVTRYRKAIAKDPNYWIQVHRLEHGDGGILDLDDILCDVADDKDRLVAVFDEQDPHHGGDGTSASSTGTQSPEIFGSELGTNNVSAFQPYQATSEIEVTPSVLRANMPLHVRRSSDPALIGLSTSVSDSNFSSEEPSRKNPTRWSTTAGFLKQNTAGSPKTCDRKKDENYRSLPRDTSNWSNQFQRDNARSSLSASHPMVGKWLEKQEQDEDGTEEDNSRVEPVGHADTGLEHIPNFSLDDMVKLVEVPNDGGPLGIHVVPFSARGGRTLGLLVKRLEKGGKAEHENLFRENDCIVRINDGDLRNRRFEQAQHMFRQAMRTPIIWFHVVPAANKEQYEQLSQSEKNNYYSSRFSPDSQYIDNRSVNSAGLHTVQRAPRLNHPPEQIDSHSRLPHSAHPSGKPPSAPASAPQNVFSTTVSSGYNTKKIGKRLNIQLKKGTEGLGFSITSRDVTIGGSAPIYVKNILPRGAAIQDGRLKAGDRLIEVNGVDLVGKSQEEVVSLLRSTKMEGTVSLLVFRQEDAFHPRELNAEPSQMQIPKETKAEDEDIVLTPDGTREFLTFEVPLNDSGSAGLGVSVKGNRSKENHADLGIFVKSIINGGAASKDGRLRVNDQLIAVNGESLLGKTNQDAMETLRRSMSTEGNKRGMIQLIVARRISKCNELKSPGSPPGPELPIETALDDRERRISHSLYSGIEGLDESPSRNAALSRIMGESGKYQLSPTVNMPQDDTVIIEDDRLPVLPPHLSDQSSSSSHDDVGFVTADAGTWAKAAISDSADCSLSPDVDPVLAFQREGFGRQSMSEKRTKQFSDASQLDFVKTRKSKSMDLGIADETKLNTVDDQKAGSPSRDVGPSLGLKKSSSLESLQTAVAEVTLNGDIPFHRPRPRIIRGRGCNESFRAAIDKSYDKPAVDDDDEGMETLEEDTEESSRSGRESVSTASDQPSHSLERQMNGNQEKGDKTDRKKDKTGKEKKKDRDKEKDKMKAKKGMLKGLGDMFRFGKHRKDDKIEKTGKIKIQESFTSEEERIRMKQEQERIQAKTREFRERQARERDYAEIQDFHRTFGCDDELMYGGVSSYEGSMALNARPQSPREGHMMDALYAQVKKPRNSKPSPVDSNRSTPSNHDRIQRLRQEFQQAKQDEDVEDRRRTYSFEQPWPNARPATQSGRHSVSVEVQMQRQRQEERESSQQAQRQYSSLPRQSRKNASSVSQDSWEQNYSPGEGFQSAKENPRYSSYQGSRNGYLGGHGFNARVMLETQELLRQEQRRKEQQMKKQPPSEGPSNYDSYKKVQDPSYAPPKGPFRQDVPPSPSQVARLNRLQTPEKGRPFYS
Difference (log2), untreated vs GFP (GFP-14-3-3β; [2]): 5.534 log2
